Publication PMC5477518

Biological target: LRP1, endogenous on primary cortical neurons (mouse (endogenous in primary cortical neurons)) (UniProt Q91ZX7)
Chain of UniProt Q91ZX7 (Q91ZX7 20-4545): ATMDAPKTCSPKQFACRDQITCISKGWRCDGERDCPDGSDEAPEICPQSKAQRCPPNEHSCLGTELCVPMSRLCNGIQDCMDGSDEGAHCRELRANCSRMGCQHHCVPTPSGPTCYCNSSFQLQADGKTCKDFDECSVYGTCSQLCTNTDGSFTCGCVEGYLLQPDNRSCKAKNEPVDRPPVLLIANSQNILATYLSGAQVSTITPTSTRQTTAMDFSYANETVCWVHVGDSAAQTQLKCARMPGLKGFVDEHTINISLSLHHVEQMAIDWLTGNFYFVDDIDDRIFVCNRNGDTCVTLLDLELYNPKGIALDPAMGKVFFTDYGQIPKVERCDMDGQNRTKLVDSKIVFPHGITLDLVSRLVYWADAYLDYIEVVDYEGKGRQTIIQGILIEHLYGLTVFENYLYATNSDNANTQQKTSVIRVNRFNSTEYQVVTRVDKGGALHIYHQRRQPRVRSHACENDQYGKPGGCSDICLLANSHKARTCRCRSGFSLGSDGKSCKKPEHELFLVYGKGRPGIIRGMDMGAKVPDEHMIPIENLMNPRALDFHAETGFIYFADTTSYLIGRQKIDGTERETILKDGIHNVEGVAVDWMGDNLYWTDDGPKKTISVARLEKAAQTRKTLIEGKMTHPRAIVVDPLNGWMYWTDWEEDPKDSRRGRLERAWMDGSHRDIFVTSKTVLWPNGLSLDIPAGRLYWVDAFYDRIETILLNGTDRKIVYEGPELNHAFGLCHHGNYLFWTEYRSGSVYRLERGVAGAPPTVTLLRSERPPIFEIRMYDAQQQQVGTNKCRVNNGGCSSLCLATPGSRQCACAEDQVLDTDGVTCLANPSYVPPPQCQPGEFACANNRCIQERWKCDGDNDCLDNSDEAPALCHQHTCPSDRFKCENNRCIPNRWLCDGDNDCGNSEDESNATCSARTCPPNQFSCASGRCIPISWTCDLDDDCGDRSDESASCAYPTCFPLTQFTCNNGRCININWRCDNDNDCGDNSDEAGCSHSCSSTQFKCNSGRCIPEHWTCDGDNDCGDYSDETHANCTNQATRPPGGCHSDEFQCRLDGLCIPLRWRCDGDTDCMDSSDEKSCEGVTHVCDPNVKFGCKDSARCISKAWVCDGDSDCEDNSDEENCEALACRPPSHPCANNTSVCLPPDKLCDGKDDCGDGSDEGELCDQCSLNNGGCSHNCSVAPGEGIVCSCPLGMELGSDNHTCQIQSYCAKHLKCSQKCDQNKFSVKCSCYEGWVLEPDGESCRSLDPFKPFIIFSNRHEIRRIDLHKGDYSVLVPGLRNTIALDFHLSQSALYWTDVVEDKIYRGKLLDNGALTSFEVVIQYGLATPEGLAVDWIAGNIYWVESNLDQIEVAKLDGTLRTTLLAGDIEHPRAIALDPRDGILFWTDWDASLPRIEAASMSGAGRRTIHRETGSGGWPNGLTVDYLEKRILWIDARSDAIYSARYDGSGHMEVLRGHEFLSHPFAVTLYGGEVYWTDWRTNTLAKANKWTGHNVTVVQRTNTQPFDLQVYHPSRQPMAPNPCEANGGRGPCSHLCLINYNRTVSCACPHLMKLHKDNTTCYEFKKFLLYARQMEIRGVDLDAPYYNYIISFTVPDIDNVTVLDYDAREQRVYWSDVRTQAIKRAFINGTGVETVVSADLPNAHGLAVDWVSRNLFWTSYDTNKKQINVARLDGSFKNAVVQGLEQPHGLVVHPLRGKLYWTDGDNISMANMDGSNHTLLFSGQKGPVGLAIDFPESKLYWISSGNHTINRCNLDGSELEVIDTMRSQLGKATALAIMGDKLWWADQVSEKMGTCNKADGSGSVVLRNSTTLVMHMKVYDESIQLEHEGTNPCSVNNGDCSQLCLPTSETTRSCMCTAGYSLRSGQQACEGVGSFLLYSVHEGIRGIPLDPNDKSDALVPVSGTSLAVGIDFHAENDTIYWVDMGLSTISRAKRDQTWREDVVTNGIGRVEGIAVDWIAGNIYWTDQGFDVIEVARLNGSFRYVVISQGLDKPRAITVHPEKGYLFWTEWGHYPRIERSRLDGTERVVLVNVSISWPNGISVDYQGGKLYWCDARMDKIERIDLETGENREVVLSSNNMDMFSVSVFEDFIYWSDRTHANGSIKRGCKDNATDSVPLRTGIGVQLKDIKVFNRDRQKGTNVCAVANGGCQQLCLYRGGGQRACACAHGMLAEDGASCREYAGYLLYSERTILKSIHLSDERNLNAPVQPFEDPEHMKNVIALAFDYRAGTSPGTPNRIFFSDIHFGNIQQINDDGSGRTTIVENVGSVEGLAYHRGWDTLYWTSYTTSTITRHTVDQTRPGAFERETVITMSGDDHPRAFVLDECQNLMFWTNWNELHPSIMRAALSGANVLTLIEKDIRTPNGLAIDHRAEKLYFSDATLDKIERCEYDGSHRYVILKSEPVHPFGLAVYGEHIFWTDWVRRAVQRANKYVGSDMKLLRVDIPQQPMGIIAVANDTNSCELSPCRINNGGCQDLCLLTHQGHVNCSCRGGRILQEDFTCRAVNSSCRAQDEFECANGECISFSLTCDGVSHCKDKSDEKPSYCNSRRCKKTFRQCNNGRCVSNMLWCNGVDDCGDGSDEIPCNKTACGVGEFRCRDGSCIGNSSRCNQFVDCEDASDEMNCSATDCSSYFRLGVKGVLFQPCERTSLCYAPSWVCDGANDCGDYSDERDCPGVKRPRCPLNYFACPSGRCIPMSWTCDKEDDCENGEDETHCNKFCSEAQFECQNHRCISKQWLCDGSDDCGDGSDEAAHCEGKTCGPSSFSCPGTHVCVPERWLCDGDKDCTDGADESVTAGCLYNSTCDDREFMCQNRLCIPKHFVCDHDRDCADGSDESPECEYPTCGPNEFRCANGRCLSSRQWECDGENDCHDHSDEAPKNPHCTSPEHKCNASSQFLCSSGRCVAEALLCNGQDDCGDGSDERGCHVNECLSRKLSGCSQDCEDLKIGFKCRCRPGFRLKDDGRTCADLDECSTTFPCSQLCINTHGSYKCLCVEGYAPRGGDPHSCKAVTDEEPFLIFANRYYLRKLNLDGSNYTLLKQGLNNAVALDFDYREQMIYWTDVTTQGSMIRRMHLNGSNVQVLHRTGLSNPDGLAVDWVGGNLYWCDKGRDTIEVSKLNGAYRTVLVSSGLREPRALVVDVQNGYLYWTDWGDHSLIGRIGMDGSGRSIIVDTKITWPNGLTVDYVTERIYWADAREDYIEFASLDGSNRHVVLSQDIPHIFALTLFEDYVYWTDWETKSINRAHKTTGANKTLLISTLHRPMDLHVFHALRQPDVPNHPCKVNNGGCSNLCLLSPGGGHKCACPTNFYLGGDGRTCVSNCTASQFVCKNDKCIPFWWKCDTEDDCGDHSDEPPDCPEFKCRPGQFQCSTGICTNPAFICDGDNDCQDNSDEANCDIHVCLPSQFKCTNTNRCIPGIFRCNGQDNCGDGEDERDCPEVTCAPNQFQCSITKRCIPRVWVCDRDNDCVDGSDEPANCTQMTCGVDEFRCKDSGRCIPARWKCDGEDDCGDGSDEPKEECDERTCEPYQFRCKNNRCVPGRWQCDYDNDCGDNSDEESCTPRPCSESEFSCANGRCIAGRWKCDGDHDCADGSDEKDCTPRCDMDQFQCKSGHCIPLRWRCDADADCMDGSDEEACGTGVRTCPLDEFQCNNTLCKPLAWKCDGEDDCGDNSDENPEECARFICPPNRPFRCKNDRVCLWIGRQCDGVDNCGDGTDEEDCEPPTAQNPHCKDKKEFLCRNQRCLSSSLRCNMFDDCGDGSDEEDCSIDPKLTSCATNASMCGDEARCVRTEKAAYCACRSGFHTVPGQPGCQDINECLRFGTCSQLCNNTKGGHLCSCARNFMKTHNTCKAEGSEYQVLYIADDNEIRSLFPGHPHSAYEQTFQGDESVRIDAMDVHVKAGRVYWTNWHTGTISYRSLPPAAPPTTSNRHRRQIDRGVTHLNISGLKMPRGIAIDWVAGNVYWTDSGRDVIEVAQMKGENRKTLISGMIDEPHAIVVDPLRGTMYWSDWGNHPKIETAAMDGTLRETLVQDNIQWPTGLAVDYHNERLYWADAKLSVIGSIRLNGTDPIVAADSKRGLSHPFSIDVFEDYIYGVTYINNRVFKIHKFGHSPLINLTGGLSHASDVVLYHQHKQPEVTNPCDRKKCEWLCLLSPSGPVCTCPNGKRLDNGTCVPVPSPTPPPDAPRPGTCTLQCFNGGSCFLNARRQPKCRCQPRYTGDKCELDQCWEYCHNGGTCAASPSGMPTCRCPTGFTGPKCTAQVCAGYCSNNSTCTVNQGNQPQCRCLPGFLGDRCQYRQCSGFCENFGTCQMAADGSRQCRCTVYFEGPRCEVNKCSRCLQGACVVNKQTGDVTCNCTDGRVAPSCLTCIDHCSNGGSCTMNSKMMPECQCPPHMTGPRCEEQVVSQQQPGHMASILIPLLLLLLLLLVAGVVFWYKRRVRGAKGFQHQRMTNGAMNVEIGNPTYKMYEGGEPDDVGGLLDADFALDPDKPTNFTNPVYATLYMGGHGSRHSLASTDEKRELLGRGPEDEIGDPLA

uptake of hPSAP (1 μg/ml) by primary cortical neurons in the presence of GST-RAP (50 μg/ml), immunoblot: 75%
B1: Recombinant his-human PSAP (natural protein)
chain: GPVLGLKECTRGSAVWCQNVKTASDCGAVKHCLQTVWNKPTVKSLPCDICKDVVTAAGDMLKDNATEEEILVYLEKTCDWLPKPNMSASCKEIVDSYLPVILDIIKGEMSRPGEVCSALNLCESLQKHLAELNHQKQLESNKIPELDMTEVVAPFMANIPLLLYPQDGPRSKPQPKDNGDVCQDCIQMVTDIQTAVRTNSTFVQALVEHVKEECDRLGPGMADICKNYISQYSEIAIQMMMHMQPKEICALVGFCDEVKEMPMQTLVPAKVASKNVIPALELVEPIKKHEVPAKSDVYCEVCEFLVKEVTKLIDNNKTEKEILDAFDKMCSKLPKSLSEECQEVVDTYGSSILSILLEEVSPELVCSMLHLCSGTRLPALTVHVTQPKDGGFCEVCKKLVGYLDRNLEKNSTKQEILAALEKGCSFLPDPYQKQCDQFVAEYEPVLIEILVEVMDPSFVCLKIGACPSAHKPLLGTEKCIWGPSYWCQNTETAAQCNAVEHCKRHVWN
